Measured values published in paper PMC314469, “Protein Interaction Networks by Proteome Peptide Scanning” (PLoS Biology, 2004).

Biological target: T1, Abp1 SH3 (ABP1_YEAST), P15891
T1 chain: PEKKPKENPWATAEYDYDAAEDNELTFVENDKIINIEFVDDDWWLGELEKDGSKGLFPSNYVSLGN
Assay: SPOT array

Binder | normalised SPOT signal, Boehringer light units (BLU); mean over the file's lines of this peptide
GDEGNRNITAPPRP [YHR031C 65-78] | 77.6
FNVPSQKPLNSKP [YHR103W 279-291] | 955
FSDKNTIPPNEKP [YPR022C 372-384] | 147
FYYWLGVPSFQRP [YHR171W 136-148] | 97
GDAFQDVEGKPLRP [YOR229W 116-129] | 51.6
GATFAVKEFRPRKP [YOR267C 238-251] | 1130
GASTIPASNNPSKP [YIL130W 103-116] | 90.9
FSEKPEETPNPLKP [YKL077W 64-77] | 170
FSLMFNTSRLPGKP [YML042W 214-227] | 2180
FNTPVDSPSVSRP [YER040W 639-651] | 94.4
FINVSHSPLVPKP [YHR034C 60-72] | 76.6
FYILDKFPLEIRP [YLL018C 442-454] | 20
FGLEQISPAQKKP [YDL217C 6-18] | 63
FNKTRFVPGSNKP [YPL272C 132-144] | 831
FKRSIGASHAPLKP [YER161C 100-113] | 145
FTYAYVSPTKLKP [YGL140C 277-289] | 170
GATTLKPATLPAKP [YIL038C 384-397] | 160
FSGVTNQPSPIRP [YER129W 662-674] | 67.2
FSVLIYESLDPDRP [YIR032C 164-177] | 143
FIDPSLRPIIVKP [YPR056W 253-265] | 10.5

Binder | normalised SPOT signal, Boehringer light units (BLU); mean over the file's lines of this peptide
GDHLQNDPLSLRP [YOR316C 398-410] | 78.1
GDKYQVDPKTSKP [YLR454W 1837-1849] | 51.2
GSNATADVSPPKKP [YDL118W 75-88] | 67.3
FQFLNNTPKMLKP [YLR190W 87-99] | 246
GDLGKEFGTTPEKP [YPL231W 188-201] | 121
GEGHSDQPQNPKP [YML118W 352-364] | 13.4
GDTVYIVHWEPSKP [YIL154C 237-250] | 48
FQVVLDTPQGLKP [YFR037C 187-199] | 103
FPDWSMGPNSAKP [YPL089C 527-539] | 238
FSGSLKLPNSPRP [YGL135W 49-61] | 478
GDELSQGPNVLKP [YDR305C 168-180] | 67.5
FVYPFIRRYTPLKP [YKR093W 407-420] | 125
FLNDVEEEESPVKP [YLL021W 576-589] | 123
FFQLPPVSKDPNRP [YML061C 379-392] | 186
FREPERKTSVPVRP [YIL156W 221-234] | 773
GAGVLAMPFAFKP [YBL089W 68-80] | 79.6
FIDDLKQPKYVRP [YPL070W 96-108] | 48.4
GAGILAMPYAFKP [YER119C 18-30] | 62.2
FTNLQAKPLVGKP [YAR002W 429-441] | 4290
FKVMVANPRKSKP [YKL189W 299-311] | 2270

Binder | normalised SPOT signal, Boehringer light units (BLU); mean over the file's lines of this peptide
GGIIPTVNGKPVRP [YBR012W-A 198-211] | 430
FLSIHFPTDYPFKP [YBR082C 52-65] | 95.8
FSHTGLTSFTPERP [YOL138C 597-610] | 92
FVFFKSLPDLPKP [YML104C 41-53] | 196
FWKSLYPELTPYKP [YKR051W 189-202] | 97.4
FQLPTRLPAFERP [YDL150W 307-319] | 353
FQLIYFFPDLIKP [YOL107W 265-277] | 28.8
FLDVLKIKPLPYKP [YER093C 581-594] | 316
FNGNSRLMMIPKKP [YDL073W 594-607] | 4150
FLHGNTNAPTPLRP [YPR099C 84-97] | 63
FRGDYGNNISPERP [YAL017W 277-290] | 106
FSAAEIWPTKGKP [YMR228W 229-241] | 158
FTDNSLLPSLIKP [YOR317W 178-190] | 217
FNVQDVRPDLFRP [YDR080W 297-309] | 100
GALLDEAPEHPRP [YNL314W 80-92] | 82.3
GEEHEPVVEIPKRP [YDR342C 45-58] | 70.9
FPPNEAPMLSPQRP [YLR006C 159-172] | 35
FKRAGLIPIRLRP [YDR072C 45-57] | 411
FIQQMMDPSKAKP [YPL082C 1249-1261] | 230
